Source: patent US20210155676A1 (Gilead, published 2021)

B1: PGT121.60 hIgG1/hLambda (antibody)
heavy: QMQLQESGPGLVKPSETLSLTCSVSGASISDSYWSWIRRSPGKGLEWIGYVHKSGDTNYNPSLKSRVHLSLDTSKNQVSLSLTGVTAADSGKYYCARTLHGRRIYGIVAFNEWFTYFYMDVWGTGTQVTVSSASTKGPSVFPLAPSSKSTSGGTAALGCLVKDYFPEPVTVSWNSGALTSGVHTFPAVLQSSGLYSLSSVVTVPSSSLGTQTYICNVNHKPSNTKVDKKVEPKSCDKTHTCPPCPAPELLAGPDVFLFPPKPKDTLMISRTPEVTCVVVDVSHEDPEVKFNWYVDGVEVHNAKTKPREEQYNSTYRVVSVLTVLHQDWLNGKEYKCKVSNKALPLPEEKTISKAKGQPREPQVYTLPPSREEMTKNQVSLTCLVKGFYPSDIAVEWESNGQPENNYKTTPPVLDSDGSFFLYSKLTVDKSRWQQGNVFSCSVLHEALHSHYTQKSLSLSPGK
light: not shown
B2: PGT121.61 hIgG1/hLambda (antibody)
heavy: QMQLQESGPGLVKPSETLSLTCSVSGASISDSYWSWIRRSPGKGLEWIGYVHKSGDTNYNPSLKSRVHLSLDTSKNQVSLSLTGVTAADSGKYYCARTLHGRRIYGIVAFNEWFTYFYMDVWGTGTQVTVSSASTKGPSVFPLAPSSKSTSGGTAALGCLVKDYFPEPVTVSWNSGALTSGVHTFPAVLQSSGLYSLSSVVTVPSSSLGTQTYICNVNHKPSNTKVDKKVEPKSCDKTHTCPPCPAPELLAGPDVFLFPPKPKDTLMISRTPEVTCVVVDVSHEDPEVKFNWYVDGVEVHNAKTKPREEQYNSTYRVVSVLTVLHQDWLNGKEYKCKVSNKALPLPEEKTISKAKGQPREPQVYTLPPSREEMTKNQVSLTCLVKGFYPSDIAVEWESNGQPENNYKTTPPVLDSDGSFFLYSKLTVDKSRWQQGNVFSCSVLHEALHSHYTQKSLSLSPGK
light: SDISVAPGETARISCGEKSLGSRAVQWYQHRAGQAPSLIIYNNQDRPSGIPERFSGSPDSRPGTTATLTITSVEAGDEADYYCHIWDSRVPTKWVFGGGTKLTVLGQPKAAPSVTLFPPSSEELQANKATLVCLISDFYPGAVTVAWKADSSPVKAGVETTTPSKQSNNKYAASSYLSLTPEQWKSHRSYSCQVTHEGSTVEKTVAPTECS
B3: PGT121.42 hIgG1/hLambda (antibody)
heavy: QMQLQESGPGLVKPSETLSLTCSVSGASISDSYWSWIRRSPGKGLEWIGYVHKSGDTNYNPSLKSRVHLSLDTSKNQVSLSLSSVTAADSGKYYCARTLHGRRIYGIVAFNEWFTYFYMDVWGKGTQVTVSSASTKGPSVFPLAPSSKSTSGGTAALGCLVKDYFPEPVTVSWNSGALTSGVHTFPAVLQSSGLYSLSSVVTVPSSSLGTQTYICNVNHKPSNTKVDKKVEPKSCDKTHTCPPCPAPELLAGPDVFLFPPKPKDTLMISRTPEVTCVVVDVSHEDPEVKFNWYVDGVEVHNAKTKPREEQYNSTYRVVSVLTVLHQDWLNGKEYKCKVSNKALPLPEEKTISKAKGQPREPQVYTLPPSREEMTKNQVSLTCLVKGFYPSDIAVEWESNGQPENNYKTTPPVLDSDGSFFLYSKLTVDKSRWQQGNVFSCSVLHEALHSHYTQKSLSLSPGK
light: not shown
notes: also called PTG121.42
B4: PGT121.56 hIgG1/hLambda (antibody)
heavy: QMQLQESGPGLVKPSETLSLTCSVSGASISDSYWSWIRRSPGKGLEWIGYVHKSGDTNYSPSLKSRVNLSLDTSKNQVSLSLVAATAADSGKYYCARTLHGRRIYGIVAFNEWFTYFYMDVWGNGTQVTVSSASTKGPSVFPLAPSSKSTSGGTAALGCLVKDYFPEPVTVSWNSGALTSGVHTFPAVLQSSGLYSLSSVVTVPSSSLGTQTYICNVNHKPSNTKVDKKVEPKSCDKTHTCPPCPAPELLAGPDVFLFPPKPKDTLMISRTPEVTCVVVDVSHEDPEVKFNWYVDGVEVHNAKTKPREEQYNSTYRVVSVLTVLHQDWLNGKEYKCKVSNKALPLPEEKTISKAKGQPREPQVYTLPPSREEMTKNQVSLTCLVKGFYPSDIAVEWESNGQPENNYKTTPPVLDSDGSFFLYSKLTVDKSRWQQGNVFSCSVLHEALHSHYTQKSLSLSPGK
light: not shown
B5: PGT121.61 hIgG1/hLambda (antibody)
heavy: QMQLQESGPGLVKPSETLSLTCSVSGASISDSYWSWIRRSPGKGLEWIGYVHKSGDTNYNPSLKSRVHLSLDTSKNQVSLSLTGVTAADSGKYYCARTLHGRRIYGIVAFNEWFTYFYMDVWGTGTQVTVSSASTKGPSVFPLAPSSKSTSGGTAALGCLVKDYFPEPVTVSWNSGALTSGVHTFPAVLQSSGLYSLSSVVTVPSSSLGTQTYICNVNHKPSNTKVDKKVEPKSCDKTHTCPPCPAPELLAGPDVFLFPPKPKDTLMISRTPEVTCVVVDVSHEDPEVKFNWYVDGVEVHNAKTKPREEQYNSTYRVVSVLTVLHQDWLNGKEYKCKVSNKALPLPEEKTISKAKGQPREPQVYTLPPSREEMTKNQVSLTCLVKGFYPSDIAVEWESNGQPENNYKTTPPVLDSDGSFFLYSKLTVDKSRWQQGNVFSCSVLHEALHSHYTQKSLSLSPGK
light: SDISVAPGETARISCGEKSLGSRAVQWYQHRAGQAPSLIIYNNQDRPSGIPERFSGSPDSRPGTTATLTITSVEAGDEADYYCHIWDSRVPTKWVFGGGTKLTVLGQPKAAPSVTLFPPSSEELQANKATLVCLISDFYPGAVTVAWKADSSPVKAGVETTTPSKQSNNKYAASSYLSLTPEQWKSHRSYSCQVTHEGSTVEKTVAPTECS
B6: PGT121.64 hIgG1/hLambda (antibody)
heavy: QLQLQESGPGLVKPSETLSLTCSVSGASISDAYWSWIRRSPGKGLEWIGYVHKSGDTNYNPSLKSRVHLSLDTSKNQVSLSLTGVTAADSGKYYCARALHGRRIYGIVAFNEWFTYFYMDVWGTGTQVTVSSASTKGPSVFPLAPSSKSTSGGTAALGCLVKDYFPEPVTVSWNSGALTSGVHTFPAVLQSSGLYSLSSVVTVPSSSLGTQTYICNVNHKPSNTKVDKKVEPKSCDKTHTCPPCPAPELLAGPDVFLFPPKPKDTLMISRTPEVTCVVVDVSHEDPEVKFNWYVDGVEVHNAKTKPREEQYNSTYRVVSVLTVLHQDWLNGKEYKCKVSNKALPLPEEKTISKAKGQPREPQVYTLPPSREEMTKNQVSLTCLVKGFYPSDIAVEWESNGQPENNYKTTPPVLDSDGSFFLYSKLTVDKSRWQQGNVFSCSVLHEALHSHYTQKSLSLSPGK
light: not shown
B7: PGT121.65 hIgG1/hLambda (antibody)
heavy: QLQLQESGPGLVKPSETLSLTCSVSGASISDAYWSWIRRSPGKGLEWIGYVHKSGDTNYNPSLKSRVHLSLDTSKNQVSLSLTGVTAADSGKYYCARALHGRRIYGIVAFNEWFTYFYMDVWGTGTQVTVSSASTKGPSVFPLAPSSKSTSGGTAALGCLVKDYFPEPVTVSWNSGALTSGVHTFPAVLQSSGLYSLSSVVTVPSSSLGTQTYICNVNHKPSNTKVDKKVEPKSCDKTHTCPPCPAPELLAGPDVFLFPPKPKDTLMISRTPEVTCVVVDVSHEDPEVKFNWYVDGVEVHNAKTKPREEQYNSTYRVVSVLTVLHQDWLNGKEYKCKVSNKALPLPEEKTISKAKGQPREPQVYTLPPSREEMTKNQVSLTCLVKGFYPSDIAVEWESNGQPENNYKTTPPVLDSDGSFFLYSKLTVDKSRWQQGNVFSCSVLHEALHSHYTQKSLSLSPGK
light: SDISVAPGETARISCGEKSLGSRAVQWYQHRAGQAPSLIIYNNQDRPSGIPERFSGSPDSRPGTTATLTITSVEAGDEADYYCHIWDSRVPTKWVFGGGTKLTVLGQPKAAPSVTLFPPSSEELQANKATLVCLISDFYPGAVTVAWKADSSPVKAGVETTTPSKQSNNKYAASSYLSLTPEQWKSHRSYSCQVTHEGSTVEKTVAPTECS

Columns and labels:
[1] = target: HIV-1 BaL Env (on virus) (HIV-1 strain BaL); assay: cell-based or functional assay
[2] = target: HIV-1 93HT593 Env (on virus) (HIV-1 isolate 93HT593); assay: cell-based or functional assay
[3] = target: HIV-1 92US657 Env (on virus) (HIV-1 isolate 92US657); assay: cell-based or functional assay
[4] = target: HIV-1 92US712 Env (on virus) (HIV-1 isolate 92US712); assay: cell-based or functional assay
[5] = target: HIV-1 92US727 Env (on virus) (HIV-1 isolate 92US727); assay: cell-based or functional assay
[6] = target: human FcγRIIIA on primary NK effector cells (human, UniProt P08637 17-254); assay: cell-based or functional assay
Chain of human FcγRIIIA on primary NK effector cells (P08637 17-254): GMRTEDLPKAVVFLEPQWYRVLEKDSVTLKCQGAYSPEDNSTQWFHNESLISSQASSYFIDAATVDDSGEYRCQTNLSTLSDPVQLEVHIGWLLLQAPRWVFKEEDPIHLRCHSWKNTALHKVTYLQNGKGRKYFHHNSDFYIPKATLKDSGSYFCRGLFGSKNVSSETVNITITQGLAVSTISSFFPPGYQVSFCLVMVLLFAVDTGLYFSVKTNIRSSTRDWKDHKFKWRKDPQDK

[7] = target: T1, Human FcRn (human, UniProt P55899 24-297; P61769 21-119); assay: ELISA, FcRn coated on plate, pH 6.0
T1 construct: also called neonatal Fc receptor
T1 sequence (P55899 24-297 limits assumed, chain 1 of 2): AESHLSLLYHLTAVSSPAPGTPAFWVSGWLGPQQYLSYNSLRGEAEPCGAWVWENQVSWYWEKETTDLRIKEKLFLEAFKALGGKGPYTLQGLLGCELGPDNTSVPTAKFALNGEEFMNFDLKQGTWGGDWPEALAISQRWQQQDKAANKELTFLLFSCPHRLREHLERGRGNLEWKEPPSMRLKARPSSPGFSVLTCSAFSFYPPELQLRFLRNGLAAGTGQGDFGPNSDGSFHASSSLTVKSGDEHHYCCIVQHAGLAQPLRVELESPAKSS
T1 sequence (P61769 21-119 limits assumed, chain 2 of 2): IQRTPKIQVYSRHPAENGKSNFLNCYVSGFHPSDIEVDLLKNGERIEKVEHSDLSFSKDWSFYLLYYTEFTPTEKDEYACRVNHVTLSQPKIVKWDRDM
Description: (§1) The binding of antibodies to FcRn of various species at different pHs was determined. A 96-well Maxisorp plate was coated with 100 ul of 5 μg/ml FcRn. The plate was incubated overnight at 4° C., and then blocked with 4% skim milk for 2 hr at room temperature after washing 3 times with 0.05% Tween 20 washing buffer. The plate was incubated with 3 fold serial dilution of primary antibody for 1 hr at room temperature. The plate was then washed 3 times and 100 of Fab-anti-human Fab-HRP or Goat anti-human IgG-HRP secondary antibody diluted in 4% skimmed milk was added. Plates were then incubated 50 min at room temperature, washed three times, and 100 μL fresh TMB substrate was added. Plates were developed for 3 minutes on bench with gentle shaking. Plate was quenched with 100 μL 1M HCl, shaken briefly, read at A450 on a spectramax m5 plate reader.

[8] = target: T1, Human FcRn; assay: ELISA, FcRn coated on plate, pH 7.0
Description: as §1

[9] = target: T1, Human FcRn; assay: ELISA, pH 7.0/6.0 ratio relative to PGT121
Description: as §1

[10] = target: T1, Human FcRn; assay: ELISA, ratio of EC50 at pH 7.0 to EC50 at pH 6.0
Description: as §1

Binder	neutralization IC50, HIV-1 BaL, CEM.NKr.CCR5.Luc assay [1] [ng/mL]	neutralization IC50, HIV-1 HT593, CEM.NKr.CCR5.Luc assay [2] [ng/mL]	neutralization IC50, HIV-1 US657, CEM.NKr.CCR5.Luc assay [3] [ng/mL]	neutralization IC50, HIV-1 US712, CEM.NKr.CCR5.Luc assay [4] [ng/mL]	neutralization IC50, HIV-1 US727, CEM.NKr.CCR5.Luc assay [5] [ng/mL]	ADCC AUC, NK donor A4813, primary CD4+ T cells infected with HT593 [6]	ADCC AUC, NK donor A4813, primary CD4+ T cells infected with US657 [6]	ADCC EC50, NK donor A4813, primary CD4+ T cells infected with HT593 [6] [nM]	ADCC EC50, NK donor A4813, primary CD4+ T cells infected with US657 [6] [nM]	ADCC Emax, NK donor A4813, primary CD4+ T cells infected with HT593 [6] [%]	ADCC Emax, NK donor A4813, primary CD4+ T cells infected with US657 [6] [%]	EC50 [7] [nM]	EC50 [8] [nM]	Fold vs PGT121 [9] [fold]	Ratio pH 7.0/6.0 [10]
B1	7	141	62	8	7										
B2	8	343	72	8	5										
B3						191	222	4.9	1.4	71	72	0.41	69.8	5	170
B4						161	219	6.3		72	71	0.47	102		
B5						169	190	2.2	1.3	70	72	0.13	140	33	1070
B6						167	188	1.4	1.6	66	70	1.59	125	2	79
B7						158	190	2.6	3.2	71	75	0.57	104	6	182
